Experimental data taken from US20110033462A1 (published 2011).

T1: JEV SA14-14-2 envelope (E) protein on virions (Japanese encephalitis virus strain …, UniProt P0DOH7 295-794)
T1 chain: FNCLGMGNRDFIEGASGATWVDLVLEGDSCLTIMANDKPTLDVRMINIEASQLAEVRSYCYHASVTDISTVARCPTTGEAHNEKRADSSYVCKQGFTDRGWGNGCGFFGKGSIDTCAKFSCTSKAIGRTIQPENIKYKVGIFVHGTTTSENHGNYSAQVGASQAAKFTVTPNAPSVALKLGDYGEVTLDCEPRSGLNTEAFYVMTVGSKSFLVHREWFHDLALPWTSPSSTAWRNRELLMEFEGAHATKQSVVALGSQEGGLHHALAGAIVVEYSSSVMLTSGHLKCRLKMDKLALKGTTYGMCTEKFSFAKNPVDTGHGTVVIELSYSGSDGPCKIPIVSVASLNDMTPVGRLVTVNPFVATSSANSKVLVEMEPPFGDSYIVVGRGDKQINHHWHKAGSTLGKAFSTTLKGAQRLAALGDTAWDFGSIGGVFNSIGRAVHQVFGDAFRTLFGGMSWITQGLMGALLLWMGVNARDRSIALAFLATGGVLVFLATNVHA

T2: recombinant JEV N-terminal 80% E protein (Japanese encephalitis virus strain …, UniProt P0DOH7 295-692)
T2 chain: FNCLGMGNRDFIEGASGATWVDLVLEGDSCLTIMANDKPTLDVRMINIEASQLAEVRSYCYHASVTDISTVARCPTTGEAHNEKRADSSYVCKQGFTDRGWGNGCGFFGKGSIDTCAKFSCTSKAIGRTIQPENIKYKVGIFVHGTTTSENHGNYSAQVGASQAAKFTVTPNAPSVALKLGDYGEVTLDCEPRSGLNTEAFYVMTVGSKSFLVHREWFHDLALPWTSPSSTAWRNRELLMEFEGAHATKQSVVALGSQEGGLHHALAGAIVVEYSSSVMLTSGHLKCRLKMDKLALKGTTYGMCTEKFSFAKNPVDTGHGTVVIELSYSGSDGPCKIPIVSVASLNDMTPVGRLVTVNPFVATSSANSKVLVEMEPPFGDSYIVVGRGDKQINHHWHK

T3: Langat virus (LGTV) strain TP 21 virions (Langat virus, strain TP 21, UniProt P29837 281-776)
T3 construct: mature
T3 sequence: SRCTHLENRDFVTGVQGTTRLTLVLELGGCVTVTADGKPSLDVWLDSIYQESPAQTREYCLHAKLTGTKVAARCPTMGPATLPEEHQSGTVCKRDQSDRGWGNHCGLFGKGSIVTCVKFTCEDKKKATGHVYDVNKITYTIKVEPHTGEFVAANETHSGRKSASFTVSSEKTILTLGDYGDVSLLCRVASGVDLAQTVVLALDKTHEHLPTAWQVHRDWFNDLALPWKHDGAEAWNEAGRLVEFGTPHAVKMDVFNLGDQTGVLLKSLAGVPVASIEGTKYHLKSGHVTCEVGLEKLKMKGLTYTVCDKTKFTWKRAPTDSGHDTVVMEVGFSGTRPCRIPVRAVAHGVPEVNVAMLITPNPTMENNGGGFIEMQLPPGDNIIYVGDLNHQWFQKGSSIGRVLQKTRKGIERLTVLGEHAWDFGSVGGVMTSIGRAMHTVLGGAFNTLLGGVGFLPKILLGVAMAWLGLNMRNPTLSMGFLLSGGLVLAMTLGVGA

B1: Fab B2 (Fab, V domains shown)
VH: VQLLEQSGSEVKKPGASVKVSCKASGYPFTDYAMSWVRQAPGQGLEYMGWIFTNSGNPTYAPGFAGRFVFSLDISVNTAYLHIDSLKPEDTAVYYCARGIVTPAASGDYFDSWGQGTLVTVSS
VL: ELVLTQSPSSLSASIGDRVTITCRASQHISSWLAWYQQKPGKAPKPLIYAASSLKSGVPSRFSGSGSGTDFTLTISGLQPEDFATYYCQQYENSPVTFGGGTKVEIKR
B2: Fab E3 (Fab, V domains shown)
VH: EVQLLESGPGLVRPSQTLSLTCAVSGASISGPLSYWTWIRQSPGKKMEHIGSMFYSGNTYYNPSLKGRITMSVDTSRNQFSLNLNSVTVADTAVYFCARRRETELFGLPIDYWGQGILVTVSS
VL: ELTQSPATLSVSPGERATLSCRASERISSSYLSWYQQKPGQAPRLLMYGTSTRATGIPARFSGSGSGTDFTLTISSLQPEDFAVYFCQQDYNLPWTFGQGTKLEIKR
B3: Fab A3 (Fab, V domains shown)
VH: EVQLLESGAEVKKPGSSVRISCKVSGTPYSSYVMNWVRQAPGQGLEWMGVFVPSLDRALYAQNFQGRLSITADTTTTYMELTSLKFEDTAVYYCATDFSVGWLRPLDRWGQGTLVTVSS
VL: ELQMTQSPSSLSASVGDRVTITCRASQGISNYLAWYQQKPGKAPKLLIYYASRLESGVPSRFSGSGSGTDYTLTISSLQPEDFATYYCQQYNSNPFTFGPGTKVDIKR
B4: humanized MAb B2 (antibody, V domains shown)
VH: B1 VH
VL: B1 VL
B5: humanized MAb E3 (antibody, V domains shown)
VH: B2 VH
VL: B2 VL
B6: humanized MAb A3 (antibody, V domains shown)
VH: B3 VH
VL: B3 VL

Target: T1, JEV SA14-14-2 envelope (E) protein on …
Test: ELISA, virion-coated plate, Fab from ~100 µg/ml

Binder	ELISA titer (1/log10 dilution) [log10 reciprocal dilution]
B1	4.2
B2	4.2
B3	4.7

Target: T1, JEV SA14-14-2 envelope (E) protein on …
Test: cell-based or functional assay

Binder	PRNT50 [µg/mL]
B4	0.005
B5	0.09
B6	0.04

Target: T2, recombinant JEV N-terminal 80% E protein
Test: SPR (Biacore 3000), recombinant E immobilized, Fab in flow

Binder	Kd [nM]	koff [s⁻¹]	kon [M⁻¹ s⁻¹]
B1	110	0.0046	42000
B2	0.35	3.6e-05	100000
B3	0.72	2.8e-05	40000

Target: T2, recombinant JEV N-terminal 80% E protein
Test: SPR, recombinant E immobilized

Binder	fold faster off-rate than Fab A3 or E3 [fold]	fold weaker Kd than Fab A3 or E3 [fold]
B1	> 120	> 150

Each binder was assayed against JEV strain JKT 9092 (genotype IV) E protein on virus (Japanese encephalitis virus, strain JKT …) (assay: cell-based or functional assay).

Binder	PRNT50 titer [nM]
B4	2
B5	0.36
B6	0.07

The binders below were run against JEV strain Beijing (genotype III) E protein on virus (Japanese encephalitis virus, strain …) (assay: cell-based or functional assay).

Binder	PRNT50 titer [nM]
B4	0.02
B5	0.71
B6	0.2

The binders below were run against JEV strain JE B 1034/8 (genotype II) E protein on virus (Japanese encephalitis virus, strain JE …) (assay: cell-based or functional assay).

Binder	PRNT50 titer [nM]
B4	0.02
B5	0.14
B6	0.04

Target: T1, JEV SA14-14-2 envelope (E) protein on …
Test: cell-based or functional assay
Remark: another data set of the same source

Binder	PRNT50 titer [nM]
B1	0.25
B4	0.03
B2	84.9
B5	0.93
B3	2.55
B6	0.2

The binders below were run against JEV strain JE 1991 (genotype I) E protein on virus (Japanese encephalitis virus, strain JE …) (assay: cell-based or functional assay).

Binder	PRNT50 titer [nM]
B4	0.02
B5	0.21
B6	0.04

Target: T1, JEV SA14-14-2 envelope (E) protein on …
Test: ELISA on JEV virions (FIG. 4A), half maximum binding

Binder	EC50 [nM]
B1	~0.5
B2	~100
B3	~10

Target: T1, JEV SA14-14-2 envelope (E) protein on …
Test: ELISA on JEV virions captured by HMAF, concentration at half-maximal binding

Binder	Kd [nM]
B1	0.28
B4	0.08
B2	0.98
B5	0.31
B3	0.45
B6	0.15

Target: T1, JEV SA14-14-2 envelope (E) protein on …
Test: cell-based or functional assay
Remark: another data set of the same source

Binder	PRNT50 [nM]
B1	0.25
B2	84.9
B3	2.55

Target: T1, JEV SA14-14-2 envelope (E) protein on …
Test: cell-based or functional assay
Remark: another data set of the same source

Binder	PRNT50 titer [nM]
B1	0.25
B2	84.9
B3	2.55

Target: T1, JEV SA14-14-2 envelope (E) protein on …
Test: ELISA on JEV virions

Binder	Kd [nM]
B1	0.15

The binders below were run against T4, DENV-3 (H87) virions (dengue virus type 3, strain H87, UniProt P27915 281-773) (assay: ELISA, virion-coated plate).
T4 construct: mature

Binder	ELISA titer (1/log10 dilution) [log10 reciprocal dilution]	binding result
B1	< 1	no binding
B2	< 1	no binding
B3	< 1	no binding

What follows are binders tested against T5, DENV-4 (814669) virions (dengue virus type 4, strain 814669, UniProt P09866 280-774) (assay: ELISA, virion-coated plate).
T5 construct: mature
T5 sequence (P09866 280-774 limits assumed): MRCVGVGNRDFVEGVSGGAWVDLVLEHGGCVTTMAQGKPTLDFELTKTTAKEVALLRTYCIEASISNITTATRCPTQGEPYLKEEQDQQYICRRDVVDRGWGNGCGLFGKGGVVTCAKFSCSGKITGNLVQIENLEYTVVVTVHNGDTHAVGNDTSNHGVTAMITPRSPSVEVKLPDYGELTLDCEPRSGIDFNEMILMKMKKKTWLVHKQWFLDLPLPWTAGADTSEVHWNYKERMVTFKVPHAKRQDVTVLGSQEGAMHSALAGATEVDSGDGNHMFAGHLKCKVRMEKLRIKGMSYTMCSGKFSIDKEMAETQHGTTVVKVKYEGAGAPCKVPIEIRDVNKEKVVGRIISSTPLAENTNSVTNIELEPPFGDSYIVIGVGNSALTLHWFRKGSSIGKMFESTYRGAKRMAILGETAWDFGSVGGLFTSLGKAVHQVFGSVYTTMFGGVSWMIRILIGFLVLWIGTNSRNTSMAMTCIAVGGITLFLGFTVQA

Binder	ELISA titer (1/log10 dilution) [log10 reciprocal dilution]	binding result
B1	< 1	no binding
B2	< 1	no binding
B3	< 1	no binding

What follows are binders tested against T3, Langat virus (LGTV) strain TP 21 virions (assay: ELISA, virion-coated plate).

Binder	binding result
B1	no binding
B2	no binding
B3	no binding

Target: T1, JEV SA14-14-2 envelope (E) protein on …
Test: cell-based or functional assay
Remark: another data set of the same source

Binder	PRNT50 (µg/ml) of MAb 1 alone [µg/mL]
B4	0.005
B5	0.09
B6	0.04

Target: T1, JEV SA14-14-2 envelope (E) protein on …
Test: cell-based or functional assay
Remark: another data set of the same source

Binder	occupancy of accessible antibody sites on the virion at neutralization [%]
B4	~28
B5	66
B6	45
